# Reference: US8581042B2, “Polypeptides having beta-glucosidase activity and polynucleotides encoding same” (Novozymes A/S, priority 2010, dated 2013)
# Columns and labels:
# [1] = Specific activity on pNPG; assay type: biochemical; details: 40° C., pH 5, 20 minutes
# Method: (§1) Specific activity. 4-Nitrophenyl-beta-D-glucopyranoside (pNPG) was dissolved in DMSO to produce a 100 mM stock solution. Right before assay, the 100 mM pNPG stock solution was diluted 100-fold in 50 mM sodium acetate pH 5 with 0.01% TWEEN® 20 to 1 mM pNPG. Enzyme was diluted to a wide range of concentrations in the same buffer. To 20 μl of the enzyme dilutions (a range of concentration), 100 μl of the 1 mM pNPG solution were quickly added. The reaction was incubated at 40° C. for 20 minutes before the reaction was stopped with 50 μl of 1 M sodium carbonate pH 10, and the absorbance at 405 nm was measured for 4-nitrophenolate production. The specific activity of the Penicillium oxalicum GH3 beta-glucosidase on pNPG was determined to be 72.3±1.7 IU/mg, where […] produce 1 μmole of glucose per minute at 40° C., pH 5.
# [2] = PCS hydrolysis assay (1-gram ground-sieved, unwashed PCS), cellulose conversion; assay type: biochemical; details: supplemented; 50 and 55° C., pH 5.0
# Method: Corn stover was pretreated at the U.S. Department of Energy National Renewable Energy Laboratory (NREL) using dilute sulfuric acid. The conditions used for the pretreatment were 0.048 g sulfuric acid/g dry biomass at 190° C. and 25% w/w dry solids for around 1 minute. The water-insoluble solids in the pretreated corn stover (PCS) contained 52% cellulose, 3.6% hemicellulose and 29.8% lignin. Cellulose and hemicellulose were determined by a two-stage sulfuric acid hydrolysis with subsequent analysis of sugars by high performance liquid chromatography using NREL Standard Analytical Procedure #002. Lignin was determined gravimetrically after hydrolyzing the cellulose and hemicellulose fractions with sulfuric acid using NREL Standard Analytical Procedure #003. […] The protein concentration was determined using a BCA Reagent Kit (Pierce, Rockford, Ill., USA).
# Penicillium oxalicum GH3 beta-glucosidase (1.5 mg/g cellulose) was added to CELLUCLAST® 1.5L (15 mg/g cellulose) for a total loading of 16.5 mg protein/g cellulose. […] After 72 hour incubation at 50 and 55° C., samples were mixed well, centrifuged at 3000 rpm for 5 minutes, and supernatants were filtered using a 0.45 μm MULTISCREEN® 96-well filter plate (Millipore, Bedford, Mass., USA) and filtrates analyzed for sugar content as described below. […]
# [3] = pH activity profile on pNPG; assay type: biochemical; details: Britton Robinson buffer, 50° C.
# Method: as §1
# pH profile. The pH activity profile of the Penicillium oxalicum GH3 beta-glucosidase was determined using the same protocol described above, except the beta-glucosidase was incubated at four different pHs (4, 5, 6, and 7) and one enzyme loading was used, which yielded less than 5% conversion. Britton Robinson buffer (100 mM) was used as the buffer system. The 100 mM Britton Robinson buffer was titrated to a various pH values in the range of 4-7 using 5 M sodium hydroxide and then diluted to 40 mM with deionized water. The pNP-glucose was prepared in the same buffer, and the activity was measured at 50° C. The highest activity was normalized to 100%, and activities at the other pH values were compared to the highest activity and expressed in % activity. The pH profile of the Penicillium oxalicum GH3 beta-glucosidase is shown below.
# [4] = Thermostability: residual activity on pNPG after incubation; assay type: physicochemical; details: 1 g/L, pH 5
# Method: as §1
# Thermostability. The Penicillium oxalicum GH3 beta-glucosidase was diluted in 50 mM sodium acetate pH 5 with 0.01% TWEEN® 20 to 1 g/L, and then incubated at 50° C. for 3 days, and 60° C. for 3 hours or 24 hours. The same sample was stored at 4° C. to serve as control. After incubation, the residual activity of the samples was measured using pNPG as substrate, following the same assay protocol described above, but using one enzyme loading which yielded less than 5% conversion. The activity of the sample in 4° C. was normalized to 100%, and the activities of samples at other incubation conditions were compared to the 4° C. activity. The thermostability of the Penicillium oxalicum GH3 beta-glucosidase is shown below.
molecule,measurement,setting,value
"Penicillium oxalicum GH3 beta-glucosidase: Family GH3 beta-glucosidase of Penicillium oxalicum strain IBT5387 (SEQ ID NO: 2), expressed in Aspergillus oryzae and purified (protein, listed as Penicillium oxalicum) MRSSTTVLAFVSYGSFGIAAAKPIQEHKPELLNSFHGFQIEEPYSPPFYPSPWMNPRAEGWEDAYQKALAFVSQLTLLEKVNLTTGVGWENGPCVGNTGSVPRLGFKGLCLQDSPQGVRFADYASAFTSSQMAAATFDKTVLYERGVAMAQEHKGKGITVQLGPVAGPLGRAPEGGRNWEGFSPDPVLNGIAMAETIKGMQDTGVLACAKHYVGNEQEHFRQAGESAGHGYNIAESISSNIDDRTMHEMYLWPFADAVRAGVASFMCSYNQINNSYGCQNSHTLNKLLKSELGFQGFVMSDWQAQHSGVSSALAGLDMTMPGDTEFDTGLSFWGSNLTIAVLNGTVPEWRIDDMAMRIMAAYFKVGLTIEDQPDVNFNSWTYDTYGYKYFYSKEGYEKVNWHVDVRANHAQQIRETAAKGTVLLKNTNGALPLKRPSFVAVVGEDAGPNPKGPNGCPDRGCDEGTLAMGWGSGSTQFPFLVTPDSAIQAKVLEYGGRYESILDNYDESAISALVSQPDATCIVFGNSDSGEAFITVDGNWGDRNNLTLWQNADAVIRNVSALCSNTIVVLHTVGPVLLTDYYEHPNITAIVWAGLPGEESGNALVDILWGDVNPAGRTPFTWAKSREDYGTDVMYVPNNGEQAPQQSFSEGIFLDYRHFDQAGIDPIYEFGHGLSYTNFSYSDLRIVTKHVRPYRPTTGMTTQAPIIGPLPSPNLTEYQFPATFKYIPAFIYPYLNSTESLRAASKDPHYGSTAFIPPHALDSSPQPLNPAGDPIASGGNSMLYQELYEITAKITNTGNLAGDEVVQLYVNLGGDNPPRQLRGFDRIHLLPGQSKVFRATLTRRDLSNWDVAAQNWRIIRSAKEVYVGRSSRDLPLSARLESW",specific activity on pNPG,[1],72.3±1.7 IU/mg
same,effect on CELLUCLAST 1.5L in PCS hydrolysis,[2],synergistic effect
same,Activity (relative to highest activity),[3]; pH 4.0,38%
same,Activity (relative to highest activity),[3]; pH 5.0,99%
same,Activity (relative to highest activity),[3]; pH 6.0,100%
same,Activity (relative to highest activity),[3]; pH 7.0,36%
same,Residual activity on pNPG,"[4]; incubation 4° C. (control, normalized to 100%)",100%
same,Residual activity on pNPG,"[4]; incubation 50° C., 72 hours",100%
same,Residual activity on pNPG,"[4]; incubation 60° C., 3 hours",100%
same,Residual activity on pNPG,"[4]; incubation 60° C., 24 hours",100%
same,Residual activity on pNPG,"[4]; incubation 70° C., 24 hours",76%
